Assay results from publication PMC12136220.

Biological target: human recombinant Hsp60 (human), P10809
Experiment: cryo-EM structure; purified LAP mixed with Hsp60 at 2:1, incubated 4 h at 4°C; Titan Krios 300 kV with K3 detector, cryoSPARC; LAP-Hsp60 map refined in C1, Hsp60 alone in C7, LAP dimer in C2
Conditions: remark: other sources report otherwise

B1: human recombinant Hsp60, P10809 27-573 (natural protein)
chain: AKDVKFGADARALMLQGVDLLADAVAVTMGPKGRTVIIEQSWGSPKVTKDGVTVAKSIDLKDKYKNIGAKLVQDVANNTNEEAGDGTTTATVLARSIAKEGFEKISKGANPVEIRRGVMLAVDAVIAELKKQSKPVTTPEEIAQVATISANGDKEIGNIISDAMKKVGRKGVITVKDGKTLNDELEIIEGMKFDRGYISPYFINTSKGQKCEFQDAYVLLSEKKISSIQSIVPALEIANAHRKPLVIIAEDVDGEALSTLVLNRLKVGLQVVAVKAPGFGDNRKNQLKDMAIATGGAVFGEEGLTLNLEDVQPHDLGKVGEVIVTKDDAMLLKGKGDKAQIEKRIQEIIEQLDVTTSEYEKEKLNERLAKLSDGVAVLKVGGTSDVEVNEKKDRVTDALNATRAAVEEGIVLGGGCALLRCIPALDSLTPANEDQKIGIEIIKRTLKIPAMTIAKNAGVEGSLIVEKIMQSSSEVGYDAMAGDFVNMVEKGIIDPTKVVRTALLDAAGVASLLTTAEVVVTEIPKEEKDPGMGAMGGMGGGMGGGMF
Q: B1 was tested. Which stoichiometry N did it give?
A: 7
